Assay results reported in the supplement of paper PMC9170038.

What was measured:
[1] = test system: MS2 coat protein; experiment: apparent KD of MS2 coat protein; designed switch direction (-1 OFF switch, 1 ON switch): 1; higher = weaker reporter binding; conditions: Eterna round: R98
Procedure: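 RNA-MaP: designed FMN/MS2 RNA switches (84 nt design region) are transcribed on-chip within common flanks and titrated with SNAP-549-labelled MS2 coat protein (about 1-3000 nM) in 100 mM Tris pH 7.5, 80 mM KCl, 4 mM MgCl2, without or with 200 uM FMN. Median apparent KD per design; activation ratio = KD,OFF / KD,ON.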

[2] = test system: MS2 coat protein; experiment: apparent KD of MS2 coat protein, switch ON state; designed switch direction (-1 OFF switch, 1 ON switch): 1; higher = weaker reporter binding; conditions: FMN input: 0 or 200 uM; Eterna round: R93 (includes R88 designs)
Method in brief: (§1)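 For every design, apparent KD is the median of normalised binding-curve fits from its clusters. The RNA switches were transcribed on-chip from Illumina sequencing clusters and titrated with SNAP-549-labelled MS2 coat protein (twofold steps, 0.7 or 1.5 nM to 3 µM; 0.8–1.5 h to 10–20 min per step). Titrations used 100 mM Tris-HCl pH 7.5, 80 mM KCl, 4 mM MgCl2, without or with constant ligand.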

[3] = test system: MS2 coat protein; experiment: apparent KD of MS2 coat protein, switch OFF state (with FMN for OFF switches, without FMN for ON switches); designed switch direction (-1 OFF switch, 1 ON switch): 1; higher = weaker reporter binding; conditions: FMN input: 0 or 200 uM; Eterna round: R93 (includes R88 designs)
Method in brief: as §1

Row | Sequence | apparent KD of MS2 coat protein ([1]; input ligand: FMN 200 uM) | apparent KD of MS2 coat protein ([1]; input ligand: none) | apparent KD of MS2 coat protein [2] | apparent KD of MS2 coat protein [3]
1 | GUAGCAUACUGAGGAUAUUCAUAUAAUAAAUAAACAUGAGGAUCACCCAUGUGGCGAAAGCCUUGGGAGAAGGCAGAAUGCUAC [Xeonanis 55 7] | 0.0383 µM | 0.511 µM |  | 
2 | GGACAUCCCACAGGAUAUGCUGGACUUUGUCCAGCAGAAGGGUGAAACAUGAGGAUCACCCAUGUAAGGAUGUCCAUAUUUAAU [Denovo 40] | 0.217 µM | 2.19 µM |  | 
3 | GUAGCUAUCGGAGGAUAUUCAUAGCCGAGAGGCACAUGAGGAUCACCCAUGUGCGGAAACGCUUGGGAGAAGGCCGAUAGCUAC [Mat - Same State NG 2 - JL Mod - D77] | 0.0143 µM | 0.0215 µM |  | 
4 | CCACAACAUUGAGGAUAUGCACAGGAUCACCGUGUAGAAGGCAUCAGGGAGAAGGUGCAGAGGAUCACCCUGUAAGGAUAUCUA [pwkr2 ssNG1 DX.8] | 0.133 µM | 0.34 µM |  | 
5 | UUUGGGAGCACAGGAUAUGGCACCUCGACCGUGCCAGAAGGGUGAUUCUGUUGGUGGCCACAUGAGGAUCACCCAUGUGCCUCC [Araterin] | 0.0215 µM | 0.275 µM |  | 
6 | GUGCACAUUCGAGGAUAUCGGAGAGGAGUCCUUCGAGAAGGCGAUUCAUGCUGUGUUAUUCUGGACAUGAGGAUCACCCAUGUG [LRO019_SS NG 1 mod JR_SSNG1_Sub034] | 0.107 µM | 0.149 µM |  | 
7 | GCAGAAGGUGCGGAGGAUCACCCUGUAAGGAUAUGCAUUAGCAAGGAUAUACAGAGGAUCACCCUGUAGAAGGUGCACUUCUAA [pwkr2 ssNG3 DX.7] | 1.29 µM | 1.17 µM |  | 
8 | GCUCUCACUUGAGGAUAUCGAGUGGAAUACACUCGAGAAGGCAGGAAAACCUGAGGAUCACCCAGGUAACUGGAAAGAGAGCAA [Same State NG1 - A3C, U17G Submission 5G-G46A] | 0.0203 µM | 0.0161 µM |  | 
9 | UAACUAAUAUACACAUGAGGAUCACCCAUGUCCACCCGUGGACAGGAUAUCUGGCCGCGCCGGCUGGAGAAGGGUCCGUAUUGU [Arianesge] | 0.172 µM | 0.0562 µM |  | 
10 | GCACUCAAGUUAGGAUAUGGAUCGGAAAACGAUCCAGAAGGAACAUGAAAACAUGAGCAUCAGCCAUGUUCCAGAAACGAGUGC [SameSame 13 - Jieux - Same State NG 1] | 0.0228 µM | 0.0699 µM |  | 
11 | CCGAUGCAAAUAAAACAUGAGGAUCACCCAUGUGAGUCUCAUGAGGAUAUGCAGGUCUUUGACUUGCAGAAGGCAUGGCGUCGG [Mat - Same State NG 3 - JL Mod - D70] | 0.138 µM | 1.05 µM |  | 
12 | AAAAAACAUGAGGAUCACCCAUGUGAGAAUAUGGAAGGAUAUACAAAGACGAAAGUCAAAGUAGAAGGUCUAAAAG [Mat - Same State 1 - Eli mod - D90] |  |  | 0.0311 µM | 0.0315 µM
13 | AAGACACAUGAGGAUCACCCAUGUCAAGAGAGACGAGGAUAUCUGAAUUAAUUAAAUUAAGGAGAAGGCGUGAAAA [Same State of Confusion2] |  |  | 0.0231 µM | 0.0581 µM
14 | GAAAAACAUGAGGAUCACCCAUGUAAGAUAAACACAGGAUAUGCGAAAAUAAACAAAUAAGCAGAAGGGUGAAAAG [Mat - Same State 1 - Tesla mod - 77] |  |  | 0.0185 µM | 0.0474 µM
15 | AUAUAUAUAAGGUAGGAUAUCCAAUAAUCCACAUGAGGAUCACCCAUGUAAAGAAAGAAAAAGUGGGAGAAGGGCCAUAUAUAUA [viburnum 7] |  |  | 0.0174 µM | 0.0484 µM
16 | AGAAAUAAAAGAGAGGAUAUCCAAAAGAAAACAUGAGGAUCACCCAUGUAAAACAAAACAAAAUGGGAGAAGGCUCAAAAUAAGA [Topaz 15] |  |  | 0.0198 µM | 0.0314 µM
17 | AAUAAACAUGAGGAUCACCCAUGUACCUACCACUAAGGAUAUGGGCGAAUAACAGCUCGGCCAGAAGGUAGAGGUG [Onususer] |  |  | 0.116 µM | 0.0829 µM
18 | AAAAGACAUGAGGAUCACCCAUGUAAAGACGUGGGAGGAUAUGUAUGGAAACCAGACUGUACAGAAGGCCUCUGUC [SS1 - 72] |  |  | 0.165 µM | 0.243 µM
19 | AAAUAUAAAGACUAGGAUAUACUAAAAUAAACAUGAGGAUCACCCAUGUAAAAAAUAAAACUCAUGUAGAAGGAGUAAAUAUAAA [ss2 10th] |  |  | 0.0135 µM | 0.0155 µM
20 | AGAUCUAGAAGGUAGGAUAUGUGAAAAAAAACAUGAGGAUCACCCAUGUGAUGAAUAAAAAGAAAAUAGAAGGACCAUCUAGAUC [Cross swing 1] |  |  | 0.016 µM | 0.059 µM
